This is an account of results in patent publication US20240263161A1 (UNIVERSITY OF COPENHAGEN, published 2024).

Assay [1] has as its target membrane bound MUC1 TR reporter on HEK293 WT cells (core2 O-glycans) (human) (UniProt P15941). The assay is described as follows: cell-based or functional assay.
The target in assay [2] is secreted purified MUC1 TR reporter, WT glycoform (core2 sialylated O-glycans, HEK293 WT) (human) (UniProt P15941). Briefly: cell-based or functional assay.
In assay [3] the target is secreted purified MUC1 TR reporter, WT glycoform (core2 sialylated O-glycans, HEK293 WT) (human, UniProt P15941 121-260). Briefly: microscale thermophoresis (MST), […].
Assay [4] deals with T1, secreted purified MUC5AC TR reporter, WT glycoform (core2 sialylated O-glycans, HEK293 WT) (human, UniProt P98088 2708-2850).
T1 sequence: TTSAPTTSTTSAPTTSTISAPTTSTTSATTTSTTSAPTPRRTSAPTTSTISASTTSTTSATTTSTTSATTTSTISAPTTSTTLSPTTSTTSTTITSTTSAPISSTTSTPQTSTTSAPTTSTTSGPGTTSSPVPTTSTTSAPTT
Briefly: microscale thermophoresis (MST), […].

The target of assay [5] is T2, secreted purified MUC5AC TR reporter, Tn glycoform (human, UniProt P98088 2708-2850).
T2 sequence: T1 sequence
Briefly: microscale thermophoresis (MST), […]. Background: In MST a laser heats a spot of the sample, and binding alters the fluorescence response.

For assay [6], the target named is secreted purified MUC21 TR reporter, Tn glycoform (human, UniProt Q5SSG8 130-278). Briefly: ELISA with purified secreted reporters. For orientation: An ELISA detects its analyte on a solid surface through an enzyme-linked reagent.
Chain of secreted purified MUC21 TR reporter, Tn glycoform (Q5SSG8 130-278): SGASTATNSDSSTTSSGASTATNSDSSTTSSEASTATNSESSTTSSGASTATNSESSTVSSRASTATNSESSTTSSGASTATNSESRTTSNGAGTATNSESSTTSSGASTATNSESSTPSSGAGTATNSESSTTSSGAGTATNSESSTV

Chain of secreted purified MUC1 TR reporter, WT glycoform (core2 sialylated O-glycans, HEK293 WT) (P15941 121-260): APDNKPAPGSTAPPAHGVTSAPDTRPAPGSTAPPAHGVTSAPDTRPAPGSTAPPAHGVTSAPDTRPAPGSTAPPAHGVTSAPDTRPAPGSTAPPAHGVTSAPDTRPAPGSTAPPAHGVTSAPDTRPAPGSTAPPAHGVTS
Chain of secreted purified MUC1 TR reporter, WT glycoform (core2 sialylated O-glycans, HEK293 WT) (human) (P15941 121-260): as above
Chain of membrane bound MUC1 TR reporter on HEK293 WT cells (core2 O-glycans) (human) (P15941 121-260 limits assumed): as the sequence (P15941 121-260) above

In turn, “StcE (Secreted protease of C1 esterase inhibitor) wildtype, recombinant (from UniProt O82882 36-898) (enzyme)” returned a cleavage, dose titration on cells (flow cytometry) in assay [1] greater than 10 µg/mL. Also, the cleavage, dose titration with the isolated reporter (SDS-PAGE) in assay [2] was greater than 10 µg/mL.

B1: AlexaFluoro647 labelled MBP-X409 (other)
chain: EGCIVSVNSGKRYCLPVGQRSGYSLPDWIVGQEVYVDSGAKAKVLLSDWDNLSYNRIGEFVGNVNPADMKKVKAWNGQYLDFSKPRSMRVVYK
As for B1, the Kd (commonly the free concentration of one partner at which half of the binding sites on the other are occupied at equilibrium, for simple one-to-one binding) in assay [3] came to 2600 nM; in assay [4], 14 nM; in assay [5], 37 nM. Further, in assay [3], the “fold lower binding affinity (against MUC5Ac)” value was greater than 1000 fold.

B2: X409 module of Escherichia coli O157:H7 StcE (tags of the construct not stated) (other)
chain: B1 chain
As for B2, the binding result in assay [6] was “binds”.
